From patent US20080241130A1 (published 2008)

Legend:
human IL-17R.Fc = molecular target: T1, human IL-17R.Fc (human); assay: indirect sandwich ELISA; receptor.Fc captured on goat anti-human IgG-Fc, biotinylated cytokine titrated
T1 construct: also called hIL-17R.Fc; IL-17RA.Fc
Experimental: (§1) Binding of human IL-17F, hIL-17A or hIL-17F/IL-17A to human IL-17R.Fc (hIL-17R.Fc) and IL-17RC.Fc (hIL-17RC.Fc) was determined by indirect sandwich ELISA. ELISA plates (Costar, Cambridge Mass.) were coated overnight with 10 μg/ml goat anti-human IgG-Fc (Bethyl Laboratories, Montgomery, Tex.). Human IL-17R.Fc or hIL17-RC.Fc was then loaded at 6 ng/ml and 30 ng/ml, respectively, for 3 hours, followed by serial dilutions of biotinylated IL-17A, IL-17F or IL-17F/IL-17A for 2 hours. The plate was developed with Poly-HRP Streptavidin (Pierce Biotechnology, Rockford, Ill.) and TMB Substrate (KPL Labs, Gaithersburg, Md.).
(§2) The binding of hIL-17F, hIL-17A or hIL-17F/IL-17A to hIL-17R.Fc and/or hIL-17RC.Fc was evaluated by indirect sandwich ELISA. All three cytokines bound to hIL-17RC.Fc with approximately the same EC₅₀ of 18-25 ng/ml (FIG. 1B). However, the EC₅₀ for the three cytokines were different for binding to hIL-17R.Fc. The tightest binding occurred between hIL-17A and hIL-17R.Fc with an EC₅₀ of 25 ng/ml. Human IL-17F bound weakly to hIL-17R.Fc with an EC₅₀ greater than 2000 ng/ml.

human IL-17RC.Fc = molecular target: T2, human IL-17RC.Fc (human); assay: indirect sandwich ELISA: IL-17RC.Fc captured on goat anti-human IgG-Fc, biotinylated cytokine titrated, Poly-HRP streptavidin
T2 construct: also called hIL-17RC.Fc
T2 sequence (chain, as listed by the source limits assumed): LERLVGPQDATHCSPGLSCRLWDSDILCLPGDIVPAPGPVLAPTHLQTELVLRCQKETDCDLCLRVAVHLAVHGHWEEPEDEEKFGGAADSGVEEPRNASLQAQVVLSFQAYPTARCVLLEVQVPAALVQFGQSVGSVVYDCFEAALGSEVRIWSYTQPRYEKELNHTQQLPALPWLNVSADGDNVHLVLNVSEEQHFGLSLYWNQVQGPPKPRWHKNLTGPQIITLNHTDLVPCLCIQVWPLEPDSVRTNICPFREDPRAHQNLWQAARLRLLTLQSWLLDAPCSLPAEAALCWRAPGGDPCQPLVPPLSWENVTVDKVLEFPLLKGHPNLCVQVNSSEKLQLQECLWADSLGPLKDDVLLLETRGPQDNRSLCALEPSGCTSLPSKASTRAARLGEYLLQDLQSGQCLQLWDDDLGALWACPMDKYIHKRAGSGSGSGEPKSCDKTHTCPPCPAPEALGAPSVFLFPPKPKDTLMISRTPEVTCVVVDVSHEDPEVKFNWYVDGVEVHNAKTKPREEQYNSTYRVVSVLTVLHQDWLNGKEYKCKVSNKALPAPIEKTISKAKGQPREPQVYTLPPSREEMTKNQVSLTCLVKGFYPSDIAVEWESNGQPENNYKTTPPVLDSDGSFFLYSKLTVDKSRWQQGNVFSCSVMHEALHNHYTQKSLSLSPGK
Experimental: as §1, §2

T1 sequence (chain, as listed by the source limits assumed): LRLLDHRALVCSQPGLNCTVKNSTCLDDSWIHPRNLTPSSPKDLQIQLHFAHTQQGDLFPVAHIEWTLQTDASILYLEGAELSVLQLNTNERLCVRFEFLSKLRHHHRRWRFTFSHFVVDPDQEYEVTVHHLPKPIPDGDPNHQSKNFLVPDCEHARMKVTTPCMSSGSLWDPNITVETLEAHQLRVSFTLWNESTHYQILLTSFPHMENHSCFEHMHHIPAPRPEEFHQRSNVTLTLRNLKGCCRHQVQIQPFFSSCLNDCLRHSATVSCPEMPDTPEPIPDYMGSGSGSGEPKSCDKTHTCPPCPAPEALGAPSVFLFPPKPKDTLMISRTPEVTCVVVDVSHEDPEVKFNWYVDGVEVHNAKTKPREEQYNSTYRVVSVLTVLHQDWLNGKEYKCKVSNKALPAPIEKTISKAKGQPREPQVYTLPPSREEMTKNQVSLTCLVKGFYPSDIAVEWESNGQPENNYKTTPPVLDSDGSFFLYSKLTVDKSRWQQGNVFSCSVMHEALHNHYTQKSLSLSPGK

EC50 (human IL-17R.Fc): > 2 µg/mL
EC50 (read off the curve) (human IL-17RC.Fc): ~0.02 µg/mL
B1: human IL-17F (ligand)
chain: RKIPKVGHTFFQKPESCPPVPGGSMKLDIGIINENQRVSMSRNIESRSTSPWNYTVTWDPNRYPSEVVQAQCRNLGCINAQGKEDISMNSVPIQQETLVVRRKHQGCSVSFQLEKVLVTVGCTCVTPVIHHVQ
modifications: biotinylated in the ELISA (FluoReporter Mini-biotin-XX kit); sites not stated
notes: Homodimer; also called hIL-17F
